Experimental data as given in the supplement of paper PMC9112550, “Optimization of the antimicrobial peptide Bac7 by deep mutational scanning” (BMC Biology, 2022).

Each sequence was assayed on Escherichia coli TOP10 (assay: shrunken log2 fold change of peptide-encoding DNA abundance (4.5 h post-induction vs induction); higher = less antimicrobial activity (less host growth inhibition)). Conditions: time post-induction: 4.5 h; library: site-saturation at positions 5, 18, 19, 20.
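Note: peptides expressed intracellularly from a pBAD plasmid library in pooled LB shake-flask culture, induced with 0.3% L-arabinose, DNA abundance read by NGS, three biological replicates, DESeq2 with apeglm shrinkage.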

Sequence	shrunken log2 fold change
RRIRRRPPRLPRPRPRPEINPRP	-0.0385
RRIRRRPPRLPRPRPRPEIYPRP	0.0166
RRIRRRPPRLPRPRPRPEKSPRP	0.0868
RRIRRRPPRLPRPRPRPELFPRP	1.06
RRIRRRPPRLPRPRPRPEMGPRP	0.626
RRIRRRPPRLPRPRPRPENAPRP	0.115
RRIRRRPPRLPRPRPRPEPNPRP	-0.00852
RRIRRRPPRLPRPRPRPEQAPRP	-0.0266
RRIRRRPPRLPRPRPRPEQCPRP	-0.00836
RRIRRRPPRLPRPRPRPERMPRP	0.222
RRIRRRPPRLPRPRPRPESEPRP	0.0778
RRIRRRPPRLPRPRPRPEVQPRP	-0.00368
RRIRRRPPRLPRPRPRPEVRPRP	0.176
RRIRRRPPRLPRPRPRPEWMPRP	0.126
RRIRRRPPRLPRPRPRPEYDPRP	0.109
RRIRRRPPRLPRPRPRPEYLPRP	-0.0446
RRIRRRPPRLPRPRPRPFDRPRP	0.542
RRIRRRPPRLPRPRPRPFDSPRP	-0.21
RRIRRRPPRLPRPRPRPFEHPRP	-0.0715
RRIRRRPPRLPRPRPRPFEWPRP	-0.0864
RRIRRRPPRLPRPRPRPFFIPRP	-0.0305
RRIRRRPPRLPRPRPRPFFRPRP	0.354
RRIRRRPPRLPRPRPRPFGFPRP	0.197
RRIRRRPPRLPRPRPRPFGGPRP	0.0433
RRIRRRPPRLPRPRPRPFGTPRP	0.0468

Sequence	shrunken log2 fold change
RRIRRRPPRLPRPRPRPFHHPRP	-0.0883
RRIRRRPPRLPRPRPRPFHRPRP	0.0574
RRIRRRPPRLPRPRPRPFKWPRP	-0.157
RRIRRRPPRLPRPRPRPFLQPRP	0.117
RRIRRRPPRLPRPRPRPFNEPRP	-0.846
RRIRRRPPRLPRPRPRPFPCPRP	0.038
RRIRRRPPRLPRPRPRPFQKPRP	-0.0282
RRIRRRPPRLPRPRPRPFQMPRP	-0.138
RRIRRRPPRLPRPRPRPFSRPRP	0.18
RRIRRRPPRLPRPRPRPFTVPRP	-0.118
RRIRRRPPRLPRPRPRPGACPRP	0.475
RRIRRRPPRLPRPRPRPGDHPRP	0.0619
RRIRRRPPRLPRPRPRPGEVPRP	1.28
RRIRRRPPRLPRPRPRPGFIPRP	-0.00928
RRIRRRPPRLPRPRPRPGGCPRP	0.325
RRIRRRPPRLPRPRPRPGITPRP	-0.0143
RRIRRRPPRLPRPRPRPGKHPRP	-0.0322
RRIRRRPPRLPRPRPRPGKYPRP	-0.307
RRIRRRPPRLPRPRPRPGLMPRP	0.342
RRIRRRPPRLPRPRPRPGLTPRP	0.508
RRIRRRPPRLPRPRPRPGNVPRP	0.418
RRIRRRPPRLPRPRPRPGPRPRP	0.917
RRIRRRPPRLPRPRPRPGQAPRP	0.0103
RRIRRRPPRLPRPRPRPGQEPRP	0.777
RRIRRRPPRLPRPRPRPGQWPRP	0.312

Sequence	shrunken log2 fold change
RRIRRRPPRLPRPRPRPGRWPRP	0.591
RRIRRRPPRLPRPRPRPGSFPRP	0.122
RRIRRRPPRLPRPRPRPGSYPRP	-0.0811
RRIRRRPPRLPRPRPRPGTRPRP	0.117
RRIRRRPPRLPRPRPRPGVWPRP	0.47
RRIRRRPPRLPRPRPRPHAKPRP	0.0278
RRIRRRPPRLPRPRPRPHAWPRP	0.438
RRIRRRPPRLPRPRPRPHCIPRP	0.0457
RRIRRRPPRLPRPRPRPHECPRP	0.0921
RRIRRRPPRLPRPRPRPHEGPRP	0.28
RRIRRRPPRLPRPRPRPHEVPRP	0.0299
RRIRRRPPRLPRPRPRPHGFPRP	0.114
RRIRRRPPRLPRPRPRPHGMPRP	0.0957
RRIRRRPPRLPRPRPRPHHEPRP	0.0234
RRIRRRPPRLPRPRPRPHIAPRP	-0.0643
RRIRRRPPRLPRPRPRPHIIPRP	-0.259
RRIRRRPPRLPRPRPRPHISPRP	-0.0794
RRIRRRPPRLPRPRPRPHIWPRP	-0.0694
RRIRRRPPRLPRPRPRPHLHPRP	0.216
RRIRRRPPRLPRPRPRPHMRPRP	0.29
RRIRRRPPRLPRPRPRPHNIPRP	-0.127
RRIRRRPPRLPRPRPRPHPHPRP	0.147
RRIRRRPPRLPRPRPRPHPSPRP	-0.0167
RRIRRRPPRLPRPRPRPHPVPRP	0.175
RRIRRRPPRLPRPRPRPHQAPRP	-0.019
